Data from PMC3659266 (Structure (London, England : 1993), 2013).

Target: Human full-length eIF4AI (human, UniProt P60842 1-406)
Assay: ITC

Chain of Human full-length eIF4AI (P60842 whole entry): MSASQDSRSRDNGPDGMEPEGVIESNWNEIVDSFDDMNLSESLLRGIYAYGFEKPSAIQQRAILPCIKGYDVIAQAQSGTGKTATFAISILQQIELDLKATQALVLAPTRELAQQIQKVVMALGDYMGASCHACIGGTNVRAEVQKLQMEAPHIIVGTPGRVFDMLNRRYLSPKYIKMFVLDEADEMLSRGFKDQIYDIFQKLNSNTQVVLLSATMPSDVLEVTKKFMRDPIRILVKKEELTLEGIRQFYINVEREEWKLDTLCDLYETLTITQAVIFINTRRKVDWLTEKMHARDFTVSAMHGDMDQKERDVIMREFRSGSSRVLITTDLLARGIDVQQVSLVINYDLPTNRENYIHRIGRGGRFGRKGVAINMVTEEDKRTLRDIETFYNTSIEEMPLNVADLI

B1: Middle domain of human eIF4GI (MIF4G, residues 732-1003) (domain or fragment, UniProt Q04637 732-1003, looked up)
chain: KAWKPSSKRTAADKDRGEEDADGSKTQDLFRRVRSILNKLTPQMFQQLMKQVTQLAIDTEERLKGVIDLIFEKAISEPNFSVAYANMCRCLMALKVPTTEKPTVTVNFRKLLLNRCQKEFEKDKDDDEVFEKKQKEMDEAATAEERGRLKEELEEARDIARRRSLGNIKFIGELFKLKMLTEAIMHDCVVKLLKNHDEESLECLCRLLTTIGKDLDFEKAKPRMDQYFNQMEKIIKEKKTSSRIRFMLQDVLDLRGSNWVPRRGDQGPKTID
B1 was tested. Which Kd did it give?
Its Kd is 136 nM.
